Experimental data: patent publication US20200048312A1

Key:
[1] = target: antibodies of human serum sample 16CDV61197 (Zika IgG positive) (human); assay: blocking of wing DAGS ECL signal
[2] = target: antibodies of human serum sample 16CDV61275 (Zika IgG) (human); assay: blocking of wing DAGS ECL signal
[3] = target: antibodies of human serum sample 16CDV61278 (Zika IgG positive) (human); assay: blocking of wing DAGS ECL signal
[4] = target: antibodies of human serum sample 16CDV61197 (Zika IgG positive) (human); assay: blocking of ß-ladder DAGS ECL signal
[5] = target: antibodies of human serum sample 16CDV61275 (Zika IgG) (human); assay: blocking of ß-ladder DAGS ECL signal
[6] = target: antibodies of human serum sample 16CDV61278 (Zika IgG positive) (human); assay: blocking of ß-ladder DAGS ECL signal

B1: Dengue virus type 4 NS1 full length (protein)
chain: DTGCAVSWSGKELKCGSGIFVIDNVHTWTEQYKFQPESPARLASAILNAHEDGVCGIRSTTRLENIMWKQITNELNYVLWEGGHDLTVVAGDVKGVLSKGKRALAPPVNDLKYSWKTWGKAKIFTPEAKNSTFLIDGPDTSECPNERRAWNFLEVEDYGFGMFTTNIWMKFREGSSEVCDHRLMSAAIKDQKAVHADMGYWIESSKNQTWQIEKASLIEVKTCLWPKTHTLWSNGVLESQMLIPKAYAGPFSQHNYRQGYATQTVGPWHLGKLEIDFGECPGTTVTIQEDCDHRGPSLRTTTASGKLVTQWCCRSCTMPPLRFLGEDGCWYGMEIRPLSEKEENMVKSQVSA
Blocking [%] [1]: 0.891% | Normalized to Zika Blocking [%] [1]: 1.2% | Blocking [%] [2]: 2.48% | Normalized to Zika Blocking [%] [2]: 3.3% | Blocking [%] [3]: 4.5% | Normalized to Zika Blocking [%] [3]: 4.9% | Blocking [%] [4]: 31.6% | Normalized to Zika Blocking [%] [4]: 50.3% | Blocking [%] [5]: 25.1% | Normalized to Zika Blocking [%] [5]: 27.3% | Blocking [%] [6]: 2.6% | Normalized to Zika Blocking [%] [6]: 3.7%
